Experimental data published in the RNAGym collection of RNA variant scans (doi:10.7554/elife.90254).

B1: LINE1-full (parent)
chain: UACGUAGGUGGUUUUCCCCUGAUAGUGCUAAGGGGGCCUGGAAGUUUGGACUGGGCAGAGCUCAACACAGCGUGGCAAAGUGGCUGUGGCUAGACUGCCUCUCUGGAUUCCUCGUCACUCAGCAGGGCAUCUCUGAGAGAAAUGCC

Variants of: B1
Assay: self-cleavage, relative activity (ratio to wild type); higher = more cleavage; in vitro, sequencing; the parent is a self-cleaving ribozyme

Variant	self-cleavage
UACGUAGGUGGUUUUCCCCUGAUAGUGCUAAGGGGGCCUGGAAGUUUGGACUGGGCAGAGCUCAACACAGCGUGGCAAAGUGGCUGUGGCUAGACUGCCUCUCUGGAUUCCUCGACACUCAGCAGGGCUUCUCUGAGAGAAAUGCC [U115A A129U]	1.04
UGCGUAGGUGGUUUUCCCCUGAUAGUGCUAAGGGGGCCUGGAAGUUUGGACUGGGCAGAGCUCAACACAGCGUGGCGAAGUGGCUGUGGCUAGACUGCCUCUCUGGAUUCCUCGUCACUCAGCAGGGCAUCUCUGAGAGAAAUGCC [A2G A77G]	1.36
UACGUAGGUGGUUUUCCCCUGAUAGUGCUAAGGGGGCCUGGAAGUUUGGACUGGGCAGAGCUCAACACAGCGUGGCAAAGUGGCUGUGGCUAGACUGCCUCUCUGGAUUCCUCGUCUCUCAGCAGGGCAUCUCUGAGAGAAGUGCC [A117U A142G]	1.43
UACGUAGGUGGUUUUCCCCUGAUAGUGCUAAGGGGGCCUGGAAGUUUGGACUGGGCAGAGCUCAACACAGCGUGGCAAAGUGACUGUGGCUAGACUGCCUCUCUGGAUUCCUCGUCACUCGGCAGGGCAUCUCUGAGAGAAAUGCC [G83A A121G]	0.98
UACGUAGGUGGUUUUCCCCUGAUAGUGCUAAGGGGGCCUGGGAGUUUGGACUGGGCAGAGCUCAACACAGCGUGGCAAAGUGGCUGUGGCUAGACAGCCUCUCUGGAUUCCUCGUCACUCAGCAGGGCAUCUCUGAGAGAAAUGCC [A42G U96A]	0.03
UACGUAGGUGGUUUUCCCCUGAUAGUGCUAAGGGGGCCUGGAAGUUUGGACUGGGCAGAGCUCAACACAGCGUGGCAAAUUGGCUGUGGCUAGACUGCCCCUCUGGAUUCCUCGUCACUCAGCAGGGCAUCUCUGAGAGAAAUGCC [G80U U100C]	1.02
UACGUAGGUGGUUUUCCCCUGAUAGUGCUUAGGGGGCCUGGAAGUUUGGACUGGGCAGAGCUCAACACAGCGUGGCAAAGUGGCUGUGGCUAGACUGCCUCUCUGGAUUCCUCGUCACUCAGCAUGGCAUCUCUGAGAGAAAUGCC [A30U G125U]	1.17
UACGUAGGUGGUUUUCCCCUGAUAGUGCUAAGGGGGCCUGGGAGUUUGGACUGGGCAGAGCUCAACACAGCGUGGCAAAGUGGCUGUGGCUAGACUGCCUCUCUGGAUUCUUCGUCACUCAGCAGGGCAUCUCUGAGAGAAAUGCC [A42G C111U]	1.37
UACGUAGGUGGUUUUCCCCUGAUAGUGCUAAGGGGGCCUGGAAGUUUGGACUGGGCAGAGCUCAACACAGCGUGGCAAAGUGGCUGUUGCUAGACUGCCUCUCUGGAUUCCUCGACACUCAGCAGGGCAUCUCUGAGAGAAAUGCC [G88U U115A]	0.07
UACGUAGGUGGUUUUCCCCUGUUAGUGCUAAGGGGGCCUGGAAGUUUGGACUGGGCUGAGCUCAACACAGCGUGGCAAAGUGGCUGUGGCUAGACUGCCUCUCUGGAUUCCUCGUCACUCAGCAGGGCAUCUCUGAGAGAAAUGCC [A22U A57U]	0.12
UACGUAGGUGGUUUUCCCCUGAUAGUGCUAAGGGGGCCUGGAAGUUUGGACUGGGCAGAGCUCAACACAGCGUGGCAAAGUGGCUGUGGCUAGACUGCCUCUCUGGAUUCCUCGUCACUCCGCAGGGCGUCUCUGAGAGAAAUGCC [A121C A129G]	1.23
UACGUAGGUGGUUUUCCCCCGAUUGUGCUAAGGGGGCCUGGAAGUUUGGACUGGGCAGAGCUCAACACAGCGUGGCAAAGUGGCUGUGGCUAGACUGCCUCUCUGGAUUCCUCGUCACUCAGCAGGGCAUCUCUGAGAGAAAUGCC [U20C A24U]	1.37
UACGUAGGUGGUUUUCCCCUGAUAGUGCUAAGGGGGCCUGGAAGUUUGGACUGGGCAGAGCUCAACACAGCGUGGCAAAGUGGCUGUGGCUAGACCGCCUCUCUGGAUUCCUCGUCUCUCAGCAGGGCAUCUCUGAGAGAAAUGCC [U96C A117U]	0.1
UACGUAGGUGGUUUUCCCCUGAUAGUGCUAAGGGGGCCUGGAAGUUCGGACUGGGCAGAGCUCAACACAGCAUGGCAAAGUGGCUGUGGCUAGACUGCCUCUCUGGAUUCCUCGUCACUCAGCAGGGCAUCUCUGAGAGAAAUGCC [U47C G72A]	0.94
UACGUAGGUGGUUUUCCCCUGAUAGUGCUAGGGGGGCCUGGAAGUUUGGACUGGGCAGAGCUCAACACAGCGCGGCAAAGUGGCUGUGGCUAGACUGCCUCUCUGGAUUCCUCGUCACUCAGCAGGGCAUCUCUGAGAGAAAUGCC [A31G U73C]	0.77
UACGUAGGUGGUCUUCCCCUGAUAGUGCUAAGGGGGCCUGGAAGUUUGGACUGGGCAGAGCUCAACACAGCGUGGCAAAGUGGCUGUGGCUAGACUGCCUCUCUGGAUUCCUCGUCACUCAGCAGGGCAUCUCGGAGAGAAAUGCC [U13C U134G]	1.04
UACGUAGGUGGUUUUCCCCUGAUAGUGCUAAGGGGGCCUGGAAGUUUGGACUGGGCAGAGCUCAACACAGCGUGGCAAAGUGACUGUGGCUAGUCUGCCUCUCUGGAUUCCUCGUCACUCAGCAGGGCAUCUCUGAGAGAAAUGCC [G83A A94U]	0.24
UACGUAGGUGGCUUUCCCCUGAUAGUGCUAAGGGGGCCUGGAAGUUUGGACUGGGCAGAGCUCAACACAGCGUGGCAAAGUGGCUGUGGCUAGACUGCCUCUCUGGAUUCCUCGUCACUCAGCGGGGCAUCUCUGAGAGAAAUGCC [U12C A124G]	1.23
UACGUAGGUGGUUUUCCCCCGAUAGUGCUAAGGGGGCCUGGAAGUUUGGACCGGGCAGAGCUCAACACAGCGUGGCAAAGUGGCUGUGGCUAGACUGCCUCUCUGGAUUCCUCGUCACUCAGCAGGGCAUCUCUGAGAGAAAUGCC [U20C U52C]	1.76
UACGUAGGUGGUUUUCCCCUGAUAGUGCUAAGGGGGCCUGGAAGUUUGGACUGGGCAGAGCUCAACACAGCGUGGCAAAGUGGCUGUGGCUAGGCUGCCUCACUGGAUUCCUCGUCACUCAGCAGGGCAUCUCUGAGAGAAAUGCC [A94G U102A]	0.27

Variant	self-cleavage
UACGUAGGUGGUUUUCCCCUGAUUGUGCUAAGGGGGCCUGGAAGUUUGGACUGGGCAGAGCUCAACACAGCGUGGCAAAGUGGCUUUGGCUAGACUGCCUCUCUGGAUUCCUCGUCACUCAGCAGGGCAUCUCUGAGAGAAAUGCC [A24U G86U]	0.13
UACGCAGGUGGUUUUCCCCUGAUAGUGCUAAGGGGGCCUGGAAGUUUGGACUGGGCAGAGCUCAACACAGCGUGGCAAAGUGGCUGUGGCUAGACUGCCUCUCUGGAUUCCUCGUCACUCAGCAGGCCAUCUCUGAGAGAAAUGCC [U5C G127C]	1.12
UUCGUAGGUGGUUUUCCCCUGACAGUGCUAAGGGGGCCUGGAAGUUUGGACUGGGCAGAGCUCAACACAGCGUGGCAAAGUGGCUGUGGCUAGACUGCCUCUCUGGAUUCCUCGUCACUCAGCAGGGCAUCUCUGAGAGAAAUGCC [A2U U23C]	0
UACGUAGGUGGUUUUCCCCUGGUAGUGCUAAGGGGGCCUGGAAGUUUGGACUGGGCAGAGCUCAACACAGCGUGGCAAAGUGGCUGUGGCUAGACUGCCUAUCUGGAUUCCUCGUCACUCAGCAGGGCAUCUCUGAGAGAAAUGCC [A22G C101A]	1.47
UACGUAGGUGGUUUUCCCCUGAUAGUGCUAAGGGGGCCUGGAAGUUUGGACUGGGCAGAGCUCAACACAGCGUGGCAAAGUGGCUGUGGGUAGACUGCCUCUCUGGAUUCCUCGUCACUCAGCAGGGCAUCUCUGUGAGAAAUGCC [C90G A136U]	0.04
UACGUAGGUGGUUUUCCCCUGAUAGUGCUAAGGGGGCCUGGAAGUUUGGACUGGGCAGAGCACAACACAGCGUGGCAAAGUGGCUGUGGCUAGACUGCCUCUCUGGAUUCCUCGUCACUCAGCAGGGCAUCUCUGAGAGUAAUGCC [U62A A140U]	0.03
UACGUAGGUGGUUUUCCCCUGAUAGUGCUAAGGGGGCCUGGAAGUUUGGACUGGGCAGAGCUCAACACAGCGAGGCAAAGUGGCUGUGGCUAGACUGCCUCUCAGGAUUCCUCGUCACUCAGCAGGGCAUCUCUGAGAGAAAUGCC [U73A U104A]	1.09
UACGUAUGUGGUUUUCCCCUGAUAGUGCUAAGGGGGCCUGGAAGUUUGGACUGGGCAGAGCUCAACACAGCGUGGCAAAGUGGCUGUGGCUAGACUGCCUCUCUGGAUUCCUCGUCACUCAGCAGGGCAUCCCUGAGAGAAAUGCC [G7U U132C]	1.23
UACGUAGGUGGUUUUCCCCUGAUAGUGCUAAGGGGGCCUGGAAGUUUGGACUGGGCAGAGCUCAACACAGCGUGGCAAAGUGGCUGUGGCUAGACUGCCUCUCUGGAUUCCUCGUCACUCAGCAGGGCAUCUCUGAGGGAAAGGCC [A138G U143G]	1.34
UACGUAGGUGGUUUUCCCCUGAUAGUGCUAAGGGGGCCUGGAAGUUUGGACUGGGCAGAGCUCAACACAGCGUGGCGAAGAGGCUGUGGCUAGACUGCCUCUCUGGAUUCCUCGUCACUCAGCAGGGCAUCUCUGAGAGAAAUGCC [A77G U81A]	2.73
UACGUAGGUGGUUUUCCCCUGAUAGUGCUAAGGGGGCCUGGAAGUUUGGACUGGGCAGAGCUCAACACAGCGUGGCACAGUGGCUGUGGCUAGACUGCCUCUCUGGAUUCCUCGUCACUCAGCGGGGCAUCUCUGAGAGAAAUGCC [A78C A124G]	0.94
UACGUAGGUGGUUUUCCCCUGAUAGUGCUAAGGGGGCCUGGAAGUUUGGACUGGGCUGAGCUCAACACAGCGAGGCAAAGUGGCUGUGGCUAGACUGCCUCUCUGGAUUCCUCGUCACUCAGCAGGGCAUCUCUGAGAGAAAUGCC [A57U U73A]	0.06
UACGUAGGAGGUUUUCCCCUGAUAGUGCUAAGGGGGCCUGGGAGUUUGGACUGGGCAGAGCUCAACACAGCGUGGCAAAGUGGCUGUGGCUAGACUGCCUCUCUGGAUUCCUCGUCACUCAGCAGGGCAUCUCUGAGAGAAAUGCC [U9A A42G]	1.14
UACGUAGGUGGCUUUCCCCUGAUAGUGCUAAGGGGGCCUGGAAGUUUGGACUGGGCAAAGCUCAACACAGCGUGGCAAAGUGGCUGUGGCUAGACUGCCUCUCUGGAUUCCUCGUCACUCAGCAGGGCAUCUCUGAGAGAAAUGCC [U12C G58A]	0.09
UACGUAGGUGGUUUUCCCCUGAUAGUGCUCAGGGGGCCUGGAAGUCUGGACUGGGCAGAGCUCAACACAGCGUGGCAAAGUGGCUGUGGCUAGACUGCCUCUCUGGAUUCCUCGUCACUCAGCAGGGCAUCUCUGAGAGAAAUGCC [A30C U46C]	1.48
UACGUAGGUGGUUUUCCCCUGAUAGUGCUAAGGGGGCCUGGAAGUUUGGACUGGGCAGAGCUCAACACAGCGUGGCAAAGUGGCUGUGGCUAGACUGCAUCUCUGGAUUCCUCGUCACUCAGCAGGGCUUCUCUGAGAGAAAUGCC [C99A A129U]	0.46
UACGUAGGUGGUCUUCCCCUGAUAGUGCUAAGGGGGCCUGGAAGUUUGGACUGGGCAGAGCUCAACACAGCGUGGCAUAGUGGCUGUGGCUAGACUGCCUCUCUGGAUUCCUCGUCACUCAGCAGGGCAUCUCUGAGAGAAAUGCC [U13C A78U]	1.81
UACGUAGGUGGUUUUCACCUGAUAGUGCUAAGGGGGCCUGGAAGUUUGGACUGGGCAGAGCUCAACACAGCGUGGCAAAGUGGCUGUGGCUAGACUGCCUCUCUGGAUUCCUCGUCACUCAGCAGGGCAUCUCUGAGAGAAAUGCC [C17A]	1.27
UAUGUAGGUGGUUAUCCCCUGAUAGUGCUAAGGGGGCCUGGAAGUUUGGACUGGGCAGAGCUCAACACAGCGUGGCAAAGUGGCUGUGGCUAGACUGCCUCUCUGGAUUCCUCGUCACUCAGCAGGGCAUCUCUGAGAGAAAUGCC [C3U U14A]	0.24
